Assays:
[1] = target: KpSSBnPaSSBc (K. pneumoniae subsp. pneumoniae MGH 78578 | P. aeruginosa PAO1) (UniProt A6TGW7); experiment: SEC; purified protein (2 mg/mL) on Superdex 200 HR 10/30 in Buffer D (20 mM potassium phosphate, 1 mM EDTA, 100 mM NaCl, pH 7.0), 0.5 mL/min; calibrated with proteins of known molecular weight; oligomeric state from the native mass against the monomer mass
[2] = target: KpSSBnStSSBc (K. pneumoniae subsp. pneumoniae MGH 78578 | S. enterica serovar Typhimurium LT2) (UniProt A6TGW7); experiment: as above

| Substance | stoichiometry N [1] | stoichiometry N [2] |
| --- | --- | --- |
| KpSSBnPaSSBc (from UniProt A6TGW7 1-91; P40947 91-165) | 4 |  |
| KpSSBnStSSBc (from UniProt A6TGW7 1-91; P0A2F6 92-176) |  | 4 |
